Biological target: T1, human Kir2.1 channel, wild type (Kir2.1-WT) (human), P63252
T1 chain: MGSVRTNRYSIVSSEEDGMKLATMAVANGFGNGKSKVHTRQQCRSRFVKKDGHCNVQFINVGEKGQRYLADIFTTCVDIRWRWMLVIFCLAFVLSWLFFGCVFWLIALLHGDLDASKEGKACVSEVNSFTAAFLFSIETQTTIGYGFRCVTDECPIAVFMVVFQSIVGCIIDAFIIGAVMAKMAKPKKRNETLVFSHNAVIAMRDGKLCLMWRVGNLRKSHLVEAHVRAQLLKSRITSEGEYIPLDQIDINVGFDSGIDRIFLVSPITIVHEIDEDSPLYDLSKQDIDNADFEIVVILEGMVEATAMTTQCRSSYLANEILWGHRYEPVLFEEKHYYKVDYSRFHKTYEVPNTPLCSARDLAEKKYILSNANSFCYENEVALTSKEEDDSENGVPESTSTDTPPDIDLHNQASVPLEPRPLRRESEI
Experiment: SEC-MALLS
Details: remark: other sources report otherwise

B1: human Kir2.1 channel, wild type (Kir2.1-WT), P63252 1-427 (natural protein)
chain: T1 chain
  stoichiometry N: 4
